Experimental data as given in US20260109758A1 (BIOSION, published 2026).
Blank lines part the entries; values can stand above or below the binder they belong to.

Assays:
[1] = target: T1, biotin-labeled human TSLP-Fc (human, biotin-labeled); assay: cell-based blocking FACS: antibody pre-mixed with biotin human TSLP-Fc; blocked binding to cell-surface TSLPR/IL7Ra on HEK293T-TSLPR/IL7R/STAT5-Luc 5C5 cells
T1 construct: also called TSLP-Fc protein; TSLP-Fc-biotin

[2] = target: T2, human IL4Rα expressed on 293F-IL4Rα cell surface (human, UniProt P24394 26-825); assay: flow cytometry on 293F-IL4Rα cells, PE anti-human IgG Fc
T2 construct: whole, on cells; also called human IL4Rα-expressing cells; cell surface IL4R

IC50 [1]: 1470 pM
EC50 [2]: 203 pM
B1: BSI-502-003 (bispecific antibody, human IgG1, kappa)
heavy: EVQLVESGGGLVQPGGSLRLSCAASGFTFSTYGMSWVRQAPGKGLVWVATINSNGGSTSYPDSVKGRFTISRDNAKNTLYLQMNSLRAEDTAVYYCARFFRFRNAMDYWGQGTLVTVSSGGGGSGGGGSGGGGSGGGGSDIQMTQSPSSLSASVGDRVTITCRTSENIYSYLAWYQQKPGKAPKFLVYNAKTLAEGVPSRFSGSGSGTDFTLTISSLQPEDFATYYCQHYYGPPTWTFGQGTKVEIKGGGGSGGGGSQVQLVQSGAEVKKPGASVKVSCKASGYTFTTYWMHWVRQAPGQGLEWMGVIDPSDSDTTYNQKFKGRVTMTRDTSTSTVYMELSSLRSEDTAVYYCTRSLDGYYDYWGQGTLVTVSSASTKGPSVFPLAPSSKSTSGGTAALGCLVKDYFPEPVTVSWNSGALTSGVHTFPAVLQSSGLYSLSSVVTVPSSSLGTQTYICNVNHKPSNTKVDKKVEPKSCDKTHTCPPCPAPEAQGGPSVFLFPPKPKDTLYITREPEVTCVVVDVSHEDPEVKFNWYVDGVEVHNAKTKPREEQYNSTYRVVSVLTVLHQDWLNGKEYKCQVSNKALPAPIEKTISKAKGQPREPQVYTLPPSRDELTKNQVSLTCLVKGFYPSDIAVEWESNGQPENNYKTTPPVLDSDGSFFLYSKLTVDKSRWQQGNVFSCSVMHEALHNHYTQKSLSLSPG
light: DIQMTQSPSSLSASVGDRVTITCRPTENIYSYLAWYQQKPGKAPKLLIYFARTLAEGVPSRFSGSGSGTDFTLTISSLQPEDFATYYCQHHYGTPWTFGGGTKVEIKRTVAAPSVFIFPPSDEQLKSGTASVVCLLNNFYPREAKVQWKVDNALQSGNSQESVTEQDSKDSTYSLSSTLTLSKADYEKHKVYACEVTHQGLSSPVTKSFNRGEC
notes: hu1C5F12E9-V8 IgG with an anti-IL4R scFv (huC2C1A1A1-V15, VH-VL) at the N-terminus of the heavy chain; AQQ and YTE already stand in the entry

IC50 [1]: 1310 pM
EC50 [2]: 169 pM
B2: BSI-502-004 (bispecific antibody, human IgG1, kappa)
heavy: DIQMTQSPSSLSASVGDRVTITCRTSENIYSYLAWYQQKPGKAPKFLVYNAKTLAEGVPSRFSGSGSGTDFTLTISSLQPEDFATYYCQHYYGPPTWTFGQGTKVEIKGGGGSGGGGSGGGGSGGGGSEVQLVESGGGLVQPGGSLRLSCAASGFTFSTYGMSWVRQAPGKGLVWVATINSNGGSTSYPDSVKGRFTISRDNAKNTLYLQMNSLRAEDTAVYYCARFFRFRNAMDYWGQGTLVTVSSGGGGSGGGGSQVQLVQSGAEVKKPGASVKVSCKASGYTFTTYWMHWVRQAPGQGLEWMGVIDPSDSDTTYNQKFKGRVTMTRDTSTSTVYMELSSLRSEDTAVYYCTRSLDGYYDYWGQGTLVTVSSASTKGPSVFPLAPSSKSTSGGTAALGCLVKDYFPEPVTVSWNSGALTSGVHTFPAVLQSSGLYSLSSVVTVPSSSLGTQTYICNVNHKPSNTKVDKKVEPKSCDKTHTCPPCPAPEAQGGPSVFLFPPKPKDTLYITREPEVTCVVVDVSHEDPEVKFNWYVDGVEVHNAKTKPREEQYNSTYRVVSVLTVLHQDWLNGKEYKCQVSNKALPAPIEKTISKAKGQPREPQVYTLPPSRDELTKNQVSLTCLVKGFYPSDIAVEWESNGQPENNYKTTPPVLDSDGSFFLYSKLTVDKSRWQQGNVFSCSVMHEALHNHYTQKSLSLSPG
light: B1 light
notes: hu1C5F12E9-V8 IgG with an anti-IL4R scFv (VL-VH) at the N-terminus of the heavy chain; AQQ and YTE already stand in the entry
